Source: patent CN111171151A (FOSHAN CANTON BIOTECHNOLOGY CO LTD; UNIV JINAN, dated 2020)

Key:
[1] = biological target: T1, EGFR-ECD 3 重组蛋白 (EGFR胞外段结构域3) (UniProt P00533 334-504, limits assumed); assay: ELISA, coated proteins 100 ng/well (EGFR-ECD3 against EGF, bFGF, Her2), anti-HA detection
T1 construct: domain: EGFR胞外段结构域3 (EGFR-ECD 3); Secreted from transiently transfected 293F cells (pCMV-EGFR-ECD3) and purified on a nickel column; also called EGFR胞外段的CD3区域片段; EGFR-ECD 3 纯化蛋白; not shown: purified on a nickel column, detected with anti

[2] = biological target: T1, EGFR-ECD 3 重组蛋白 (EGFR胞外段结构域3); assay: ELISA, coated EGFR-ECD3 100 ng/well, NbH3 from 40 μg/mL in 1:2 dilutions

B1: 抗EGFR纳米抗体 Nb H3 (VHH)
VHH: QVQLQESGGGSVQAGGSLNLSCAVSGYTGCKNGMSWYRQAPGKEREFVSGIDRDGSPSYADSVKGRFTISQDNAKNIVFLQMNSLRPEDTAMYYCATNPQRNIYGGSWCNYWGQGTQVTVSS
notes: From a Bactrian camel immunised with EGFR-ECD3; expressed in E. coli WK6 from the pComb-3X plasmid and purified on a nickel column; not shown: tags from the pComb-3X vector (purified on a nickel column, detected with anti-H)
- ratio of binding (OD) against the other control proteins [1]: > 2
- EC50 [2]: 8.76 µg/mL
